Data published in patent US20150086574A1 (CELLERANT THERAPEUTICS, published 2015).

Legend:
[1] = target: T cell Immunoglobulin- and Mucin domain-containing molecule 3 (TIM3), human, on cells (human) (UniProt Q8TDQ0); test: cell binding (flow cytometry), CMK cells
[2] = target: T cell Immunoglobulin- and Mucin domain-containing molecule 3 (TIM3), human, on cells (human) (UniProt Q8TDQ0); test: cell binding (flow cytometry), Daudi cells
[3] = target: T cell Immunoglobulin- and Mucin domain-containing molecule 3 (TIM3), human, on cells (human) (UniProt Q8TDQ0); test: cell binding (flow cytometry), Pfeiffer cells
[4] = target: T cell Immunoglobulin- and Mucin domain-containing molecule 3 (TIM3), human, on cells (human) (UniProt Q8TDQ0); test: flow cytometry, CD34+ cells from a set of AML samples
[5] = target: T cell Immunoglobulin- and Mucin domain-containing molecule 3 (TIM3), human, on cells (human) (UniProt Q8TDQ0); test: flow cytometry, PBMCs of AML patient 1, Blast population
[6] = target: T cell Immunoglobulin- and Mucin domain-containing molecule 3 (TIM3), human, on cells (human) (UniProt Q8TDQ0); test: flow cytometry, PBMCs of AML patient 2, Blast population
[7] = target: T cell Immunoglobulin- and Mucin domain-containing molecule 3 (TIM3), human, on cells (human) (UniProt Q8TDQ0); test: flow cytometry, PBMCs of AML patient 3, Blast population
[8] = target: T cell Immunoglobulin- and Mucin domain-containing molecule 3 (TIM3), human, on cells (human) (UniProt Q8TDQ0); test: flow cytometry, PBMCs of AML patient 1, CD34+CD38- population
[9] = target: T cell Immunoglobulin- and Mucin domain-containing molecule 3 (TIM3), human, on cells (human) (UniProt Q8TDQ0); test: flow cytometry, PBMCs of AML patient 2, CD34+CD38- population
[10] = target: T cell Immunoglobulin- and Mucin domain-containing molecule 3 (TIM3), human, on cells (human) (UniProt Q8TDQ0); test: flow cytometry, PBMCs of AML patient 3, CD34+CD38- population
[11] = target: T cell Immunoglobulin- and Mucin domain-containing molecule 3 (TIM3), human, on cells (human) (UniProt Q8TDQ0); test: flow cytometry, bone marrow cells of AML patient 2, Blast population
[12] = target: T cell Immunoglobulin- and Mucin domain-containing molecule 3 (TIM3), human, on cells (human) (UniProt Q8TDQ0); test: flow cytometry, bone marrow cells of AML patient 2, CD34+CD38- population
[13] = target: T cell Immunoglobulin- and Mucin domain-containing molecule 3 (TIM3), human, on cells (human) (UniProt Q8TDQ0); test: flow cytometry; cells not named in the table (Example 5 uses Pfeiffer cells)
[14] = target: T cell Immunoglobulin- and Mucin domain-containing molecule 3 (TIM3), human, on cells (human) (UniProt Q8TDQ0); test: cell-based or functional assay
[15] = target: T cell Immunoglobulin- and Mucin domain-containing molecule 3 (TIM3), human, on cells (human) (UniProt Q8TDQ0); test: flow cytometry, PBMCs of AML patient 4, Blast population
[16] = target: T cell Immunoglobulin- and Mucin domain-containing molecule 3 (TIM3), human, on cells (human) (UniProt Q8TDQ0); test: flow cytometry, PBMCs of AML patient 5, Blast population
[17] = target: T cell Immunoglobulin- and Mucin domain-containing molecule 3 (TIM3), human, on cells (human) (UniProt Q8TDQ0); test: flow cytometry, PBMCs of AML patient 4, CD34+CD38- population
[18] = target: T cell Immunoglobulin- and Mucin domain-containing molecule 3 (TIM3), human, on cells (human) (UniProt Q8TDQ0); test: flow cytometry, PBMCs of AML patient 5, CD34+CD38- population
[19] = target: T cell Immunoglobulin- and Mucin domain-containing molecule 3 (TIM3), human, on cells (human) (UniProt Q8TDQ0); test: flow cytometry, bone marrow cells of AML patient 1, Blast population
[20] = target: T cell Immunoglobulin- and Mucin domain-containing molecule 3 (TIM3), human, on cells (human) (UniProt Q8TDQ0); test: flow cytometry, bone marrow cells of AML patient 1, CD34+CD38- population

T cell Immunoglobulin- and Mucin domain-containing molecule 3 (TIM3), human, on cells (human), sequence (Q8TDQ0 22-301 limits assumed): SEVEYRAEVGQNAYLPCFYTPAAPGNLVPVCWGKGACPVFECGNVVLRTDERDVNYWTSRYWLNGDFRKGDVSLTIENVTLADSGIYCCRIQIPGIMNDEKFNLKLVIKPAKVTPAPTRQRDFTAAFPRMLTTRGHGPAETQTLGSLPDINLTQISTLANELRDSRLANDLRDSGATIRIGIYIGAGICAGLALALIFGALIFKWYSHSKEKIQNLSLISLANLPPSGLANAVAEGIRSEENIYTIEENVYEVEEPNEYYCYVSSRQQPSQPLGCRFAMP

percentage of cell binding [2] [%] | percentage of cell binding [3] [%] | percent binding [5] [%] | percent binding [6] [%] | percent binding [7] [%] | percent binding [8] [%] | percent binding [9] [%] | percent binding [10] [%] | percent binding [11] [%] | percent binding [12] [%] | % Positive for TIM3 [13] [%] | GeoMean (Intensity of TIM3 binding) [13] | Molecule | other results
90 | 97 | 2.92 | 59.3 | 1.01 | 3.26 | 64.8 | 0.17 | 1.8 | 1.6 | 89.9 | 198 | TIM3 2E2 (antibody) | percentage of cell binding [1]: 19%; Geomean [3]: 308; Positive/total (AML samples whose CD34+ cells were bound) (of 14 samples) [4]: 0
67 | 85 | 3.13 | 68.1 | 0.83 | 4.67 | 76.4 | 0.49 | 2.61 | 1.47 | 92.5 | 83.8 | 8.16C10 (antibody, IgG1, V domains shown) VH: QIQLQQSGPELVKPGASVKISYKASGYTFTDYYINWVKQKPGQGLEWIGWIYPGSGITKYNEKFKGKATLTVDSSSSTAYMQLSSLTSEDTAVYFCAIYGYDGGYAMDYWGQGTSVTVSS VL: QIVLTQSPAIMSASPGEKVTLTCSASSSVSSSYLYWYQQKPGSSPKLWIYSTSNLASGVPARFSGGGSGTSYSLTISSMEAEDAASYFCHQWSTYPYTFGGGTKLEIKR | IFN-gamma release from activated CD4+ T cells (ELISA), antibody at 5 ug/ml (fold reduction) [14]: > 2; IL-6 release from activated CD4+ T cells (ELISA), antibody at 5 ug/ml (fold reduction) [14]: > 2; percent of antibody internalized after 20 minutes, Pfeiffer cells [14]: > 50%; percent binding [15]: 78%; percent binding [16]: 25%; percent binding [17]: 87%; percent binding [18]: 25%; percent binding [19]: 55.6%; percent binding [20]: 19.2%
